IntAct's records for PubMed 17006541

B1: DNA topoisomerase 2-binding protein 1 (Homo sapiens), Q92547 (parent)
chain: MSRNDKEPFFVKFLKSSDNSKCFFKALESIKEFQSEEYLQIITEEEALKIKENDRSLYICDPFSGVVFDHLKKLGCRIVGPQVVIFCMHHQRCVPRAEHPVYNMVMSDVTISCTSLEKEKREEVHKYVQMMGGRVYRDLNVSVTHLIAGEVGSKKYLVAANLKKPILLPSWIKTLWEKSQEKKITRYTDINMEDFKCPIFLGCIICVTGLCGLDRKEVQQLTVKHGGQYMGQLKMNECTHLIVQEPKGQKYECAKRWNVHCVTTQWFFDSIEKGFCQDESIYKTEPRPEAKTMPNSSTPTSQINTIDSRTLSDVSNISNINASCVSESICNSLNSKLEPTLENLENLDVSAFQAPEDLLDGCRIYLCGFSGRKLDKLRRLINSGGGVRFNQLNEDVTHVIVGDYDDELKQFWNKSAHRPHVVGAKWLLECFSKGYMLSEEPYIHANYQPVEIPVSHKPESKAALLKKKNSSFSKKDFAPSEKHEQADEDLLSQYENGSSTVVEAKTSEARPFNDSTHAEPLNDSTHISLQEENQSSVSHCVPDVSTITEEGLFSQKSFLVLGFSNENESNIANIIKENAGKIMSLLSRTVADYAVVPLLGCEVEATVGEVVTNTWLVTCIDYQTLFDPKSNPLFTPVPVMTGMTPLEDCVISFSQCAGAEKESLTFLANLLGASVQEYFVRKSNAKKGMFASTHLILKERGGSKYEAAKKWNLPAVTIAWLLETARTGKRADESHFLIENSTKEERSLETEITNGINLNSDTAEHPGTRLQTHRKTVVTPLDMNRFQSKAFRAVVSQHARQVAASPAVGQPLQKEPSLHLDTPSKFLSKDKLFKPSFDVKDALAALETPGRPSQQKRKPSTPLSEVIVKNLQLALANSSRNAVALSASPQLKEAQSEKEEAPKPLHKVVVCVSKKLSKKQSELNGIAASLGADYRWSFDETVTHFIYQGRPNDTNREYKSVKERGVHIVSEHWLLDCAQECKHLPESLYPHTYNPKMSLDISAVQDGRLCNSRLLSAVSSTKDDEPDPLILEENDVDNMATNNKESAPSNGSGKNDSKGVLTQTLEMRENFQKQLQEIMSATSIVKPQGQRTSLSRSGCNSASSTPDSTRSARSGRSRVLEALRQSRQTVPDVNTEPSQNEQIIWDDPTAREERARLASNLQWPSCPTQYSELQVDIQNLEDSPFQKPLHDSEIAKQAVCDPGNIRVTEAPKHPISEELETPIKDSHLIPTPQAPSIAFPLANPPVAPHPREKIITIEETHEELKKQYIFQLSSLNPQERIDYCHLIEKLGGLVIEKQCFDPTCTHIVVGHPLRNEKYLASVAAGKWVLHRSYLEACRTAGHFVQEEDYEWGSSSILDVLTGINVQQRRLALAAMRWRKKIQQRQESGIVEGAFSGWKVILHVDQSREAGFKRLLQSGGAKVLPGHSVPLFKEATHLFSDLNKLKPDDSGVNIAEAAAQNVYCLRTEYIADYLMQESPPHVENYCLPEAISFIQNNKELGTGLSQKRKAPTEKNKIKRPRVH

Experiments:
akt1_human AKT1, P31749 = variants of: B1; settings: with akt1_human AKT1, P31749
[1] = variants of: B1; settings: with pias2_human PIAS2, O75928
e2f1_human E2F1, Q01094 = variants of: B1; settings: with e2f1_human E2F1, Q01094
ve2_hpv16 E2, P03120 = variants of: B1; settings: with ve2_hpv16 E2, P03120
ve2_hpv16 E2, P03120, sequence (P03120 whole entry): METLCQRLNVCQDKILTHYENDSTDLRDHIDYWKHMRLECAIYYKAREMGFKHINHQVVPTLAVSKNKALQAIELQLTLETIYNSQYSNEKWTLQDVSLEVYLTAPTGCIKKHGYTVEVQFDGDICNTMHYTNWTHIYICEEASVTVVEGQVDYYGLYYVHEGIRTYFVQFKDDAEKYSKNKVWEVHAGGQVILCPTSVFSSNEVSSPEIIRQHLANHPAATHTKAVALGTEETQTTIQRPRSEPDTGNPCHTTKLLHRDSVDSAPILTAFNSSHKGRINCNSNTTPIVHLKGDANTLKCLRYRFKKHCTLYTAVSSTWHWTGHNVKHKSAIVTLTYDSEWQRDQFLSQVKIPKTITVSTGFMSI

e2f1_human E2F1, Q01094, sequence (Q01094 whole entry): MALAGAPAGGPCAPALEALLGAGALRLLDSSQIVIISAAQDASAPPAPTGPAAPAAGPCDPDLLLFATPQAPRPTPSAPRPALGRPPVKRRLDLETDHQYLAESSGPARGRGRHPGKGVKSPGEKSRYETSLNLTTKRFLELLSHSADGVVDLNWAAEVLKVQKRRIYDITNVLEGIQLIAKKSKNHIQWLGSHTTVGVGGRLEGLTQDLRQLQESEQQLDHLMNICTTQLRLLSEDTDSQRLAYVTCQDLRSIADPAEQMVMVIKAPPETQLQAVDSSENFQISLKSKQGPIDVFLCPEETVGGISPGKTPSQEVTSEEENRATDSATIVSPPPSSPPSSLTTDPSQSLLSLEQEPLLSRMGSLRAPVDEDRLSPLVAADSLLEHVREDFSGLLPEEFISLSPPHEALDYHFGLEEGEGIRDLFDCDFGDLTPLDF
pias2_human PIAS2, O75928, sequence (O75928 whole entry): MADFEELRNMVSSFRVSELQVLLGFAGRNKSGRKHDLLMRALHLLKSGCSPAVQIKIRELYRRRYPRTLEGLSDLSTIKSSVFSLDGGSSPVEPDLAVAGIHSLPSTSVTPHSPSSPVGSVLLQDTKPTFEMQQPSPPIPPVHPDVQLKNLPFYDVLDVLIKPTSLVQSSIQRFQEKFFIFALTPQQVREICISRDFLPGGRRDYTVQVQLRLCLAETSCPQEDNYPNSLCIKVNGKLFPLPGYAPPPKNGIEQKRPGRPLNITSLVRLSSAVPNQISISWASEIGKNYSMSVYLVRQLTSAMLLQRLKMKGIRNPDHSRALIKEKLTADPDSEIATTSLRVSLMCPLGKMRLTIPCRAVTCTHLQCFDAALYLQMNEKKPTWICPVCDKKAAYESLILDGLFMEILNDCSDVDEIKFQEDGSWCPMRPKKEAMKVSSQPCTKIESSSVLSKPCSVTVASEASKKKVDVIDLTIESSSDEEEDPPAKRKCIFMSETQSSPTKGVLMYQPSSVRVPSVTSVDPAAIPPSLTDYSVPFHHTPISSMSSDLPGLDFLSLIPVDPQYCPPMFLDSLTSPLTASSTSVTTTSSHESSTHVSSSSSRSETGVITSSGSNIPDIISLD
akt1_human AKT1, P31749, sequence (P31749 whole entry): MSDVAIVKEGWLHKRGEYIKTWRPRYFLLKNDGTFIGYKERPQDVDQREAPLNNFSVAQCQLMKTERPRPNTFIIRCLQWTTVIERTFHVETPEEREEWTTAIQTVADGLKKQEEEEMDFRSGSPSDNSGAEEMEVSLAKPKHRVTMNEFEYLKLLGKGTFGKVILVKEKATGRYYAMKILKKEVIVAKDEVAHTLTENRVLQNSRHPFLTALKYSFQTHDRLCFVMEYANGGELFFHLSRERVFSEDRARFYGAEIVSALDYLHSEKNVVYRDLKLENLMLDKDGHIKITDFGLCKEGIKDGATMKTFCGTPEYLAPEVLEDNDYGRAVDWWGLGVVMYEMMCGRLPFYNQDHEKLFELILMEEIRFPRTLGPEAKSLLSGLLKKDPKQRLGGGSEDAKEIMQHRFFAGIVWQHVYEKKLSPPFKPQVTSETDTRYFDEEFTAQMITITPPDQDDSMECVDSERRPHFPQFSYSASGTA

| Variant | effect of a mutation on the interaction (akt1_human AKT1, P31749) | effect of a mutation on the interaction [1] | effect of a mutation on the interaction (e2f1_human E2F1, Q01094) | effect of a mutation on the interaction (ve2_hpv16 E2, P03120) |
| --- | --- | --- | --- | --- |
| S1159A | disrupting interaction | decreasing interaction | disrupting interaction | decreasing interaction |
| S1159D |  |  | decreasing interaction |  |
